# In publication PMC3797041 (PLoS ONE, 2013):
# Target: T1, Staphylococcal enterotoxin B (Staphylococcus aureus, strain , UniProt P01552)
# T1 construct: source: bought: Toxin Technologies
# Experiment: SPR
# Conditions: both partners purified
# T1 sequence (P01552 28-266): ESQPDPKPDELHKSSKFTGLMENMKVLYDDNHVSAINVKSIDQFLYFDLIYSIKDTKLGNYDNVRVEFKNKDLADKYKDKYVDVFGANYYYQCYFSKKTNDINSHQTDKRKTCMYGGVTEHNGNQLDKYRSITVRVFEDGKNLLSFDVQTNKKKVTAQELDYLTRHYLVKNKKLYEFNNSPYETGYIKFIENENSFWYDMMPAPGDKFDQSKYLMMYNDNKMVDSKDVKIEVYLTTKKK
Binder,binding result,Kd [nM]
hybrid ADD (VHH) VHH: EVQLQASGGGLVQPGGSLRLACQYSGRTFSRAVMGWFRQSPGKEREFVAAIRWTDSRTPHTDSRFTTSSDNFKKTAYLQMNGLKPEDTALYYCTEDTWNSVVTGTAADWSQGTQVTVSS,no binding,
hybrid construct D1A3 (VHH) VHH: EVQLQASGGGLVQPGGSLRLACQYSGRTFSRAVMGWFRQSPGKEREFVAAISAAPGTAYYAFYADSVRGRFTTSSDNFKKTAYLQMNGLKPEDTALYYCTEDLKMQVAAYMNQRSVDYWSQGTQVTVSS,,0.56
hybrid DDA (VHH) VHH: EVQLQASGGGLVQPGGSLRLACQYSGREGTTTVGWFRQSPGKEREFVAAIRWTDSRTPHTDSRFTTSSDNFKKTAYLQMNGLKPEDTALYYCTEDLKMQVAAYMNQRSVDYWSQGTQVTVSS,no binding,
hybrid DAD (VHH) VHH: EVQLQASGGGLVQPGGSLRLACQYSGREGTTTVGWFRQSPGKEREFVAAISAAPGTAYYAFYADSVRGRFTTSSDNFKKTAYLQMNGLKPEDTALYYCTEDTWNSVVTGTAADWSQGTQVTVSS,,20
hybrid AAD (VHH) VHH: EVQLVESGGGLVQAGDSLRLSCTASGRTFSRAVMGWFRQAPGKEREFVAAISAAPGTAYYAFYADSVRGRFSISADSAKNTVYLQMNSLKPEDTAVYYCAADTWNSVVTGTAADWGQGTQVTVSS,,12
hybrid construct A3D1 (VHH) VHH: EVQLVESGGGLVQAGDSLRLSCTASGREGTTTVGWFRQAPGKEREFVAAIRWTDSRTPHTDSRFSISADSAKNTVYLQMNSLKPEDTAVYYCAADTWNSVVTGTAADWGQGTQVTVSS,no binding,
hybrid antibody A3C8 (VHH) VHH: EVQLVESGGGLVQAGDSLRLSCTASGRTLGDYGVAWFRQAPGKEREFVSVISRSTIITDYADSVRGRFSISADSAKNTVYLQMNSLKPEDTAVYYCAVIANPVYATSRNSDDYGHWGQGTQVTVSS,no binding,
hybrid antibody C8A3 (VHH) VHH: EVQLQASGGGLVQGGDSLRLSCAASGRTFSRAVMGWFRQAPGKEREFVSAISAAPGTAYYAFYADSVRGRFTISRDNAKNAVYLQMNSLKPEDTAVYYCAVDLKMQVAAYMNQRSVDYWGQGTQVTVSS,,2.7
